Reference: a protein production outcome set (Wang et al. 2014)

test: label from the status in PepcDB records

Sequence	protein production
MMSTPALRPYLPEDAAVTAAIFVASIEQLTADDYSEEQQEAWASAADDEAKFAARLSGQLTLIATLQGVPVGFASLKGPDHIDMLYVHPDYVGRDVGTTLIDALEKLAGARGALILTVDASDNAAEFFAKRGYVAKQRNTVSINGEWLANTTMTKSLADSAAPGASS	not failed
MMSVLARMRVMRHRAWQGLVLLVLALLLSSCGWRGISNVAIPGGPGTGPGSYTIYVQMPDTLAINGNSRVMVADVWVGSIRAIKLKNWVATLTLSLKKDVTLPKNATAKIGQTSLLGSQHVELAAPPDPSPVPLKDGDTIPLKRSSAYPTTEQTLASIATLLRGGGLVNLEGIQQEINAIVTGRADQIRAFLGKLDTFTDELNQQRDDITRAIDSTNRLLAYVGGRSEVLNRVLTDLPPLIKHFADKQELLINASDAVGRLSQSADQYLSAARGDLHQDLQALQCPLKELRRAAPYLVGALKLILTQPFDVDTVPQLVRGDYMNLSLTLDLTYSAIDNAFLTGTGFSGALRALEQSFGRDPETMIPDIRYTPNPNDAPGGPLVERGNRQC	failed
MMTCDEIRLPKPPRLQPFLFLLRNDSLSKYSQPPRFDLARILFSLVFITIMIIACFWVVQPFILGFAWACMVVIATWPMLIKFQALLWGRRSLAVLVMTLLLILLFVVPIAVLVSSVIDNSSALMSWGSRQENLSPPTLEWLTSIPLVGEKLFNSWQALLQSGGSGLFAKVQPYFGKTATWLVAQAAHVGRFLMHCSLMLIFSALLYYKGEAVAKAVRHFAIRLGRERGDAAVILAAQSIRAVALGVVVTAIVQSVLGGIGLGLSGIPYTTLLTVLMFLCCLAQLGPLLVLIPAIIWLYWTGDNTWGTILLVWSCVVGTIDNVIRPMLIRMGADLPMLLILSGVIGGLLAFGMIGLFIGPVVLAVSYRLLFAWMREIPEPQNLLSVNTTKTPNKES	failed
MMTITTDRTPPAAGAALDRNRSAYAGLADVLERAGLAEHALYLNWGYRPVDGQPDWAARELPPGELGRMQARLVLEVLGDTPLDGRRVLDVGCGRGGALALMGRLHAPAALAGADISAANIAYCRKRHTHPRLRFQIADACRLPYPDSSMDVVFNLESSGAYPDIGAFFHHVHRILRVGGRFCLADVFDADSVAWVRAALEQAGFTLERERSIPAQVRAARERASPGIWRRLDTALTALDAPGLRRELERYLAAPSSGLFQALEDGRVDYRLFHWRKTCPAAGRIDADVIARLATRSARLDAALQDRAPSAAAPQSPAPGPANASASAWFPFTAPDAQAGFNVFALPYAGGGASVYRAWTLPRRPGAAPWQLCPVQLPGRESRFGEPLIDDMATLADRLADAIGPYAHRPWALLGCSLGCKIAFEVARRFARQGRPPALLFLMACPAPGLPLGRRISTRAEADFAREVCHLGGTPPEVLADAEMMRTLMPILRNDSALAEHYVAAEDATVNVPIVMVAAGDDHLVTVEEARRWQRHAGAGFDWRLVDGGHFFLRQRRRELTDWLLDALRRGERTLPVQTTTTDVPDVPCSTPEQPRDPSRMPAPGASANLVLAPGEILVVTAPRSLAARLTPAVLSDDEQRQLARFAFDADRERYLAAHWAKRRVLGALLAAAPRSLRFGAQAGGKPYLIGEALHFSLSHSGDRVAVAVCRHAPVGVDIEQARGIACHASAARIMHPLDRIAPQCETPEDRFLAAWSLKEAVAKCTGAGLALPFDSLRLAFAGNGRYGCLLGTHAAWEAHHQHEDGVHLAVASATPWAALRILPLDAALAEG	failed
MMTPSRAEKSLTIVIPALNEQDKIADTIDGVLPLARELLDDFEIFLIDDGSTDATGAIMNEFAASDRRITVHHNAERRGVGAGFEYALSRAKFDAITLIPGDHAFQNEGIARMFKAVGAADMVITYRDNQSDRSVNRSIQSHSLRFVLNCMFGFWLSDYHSMIVYPVKWLRQIAVRADGYGYQICALISLLQLGLTYVQVPVSLNAELKGSSRALRLRTYLELIGTIVSLLRRVPIRDVDRDQVPVDAGRTPAR	failed
MMTTAEQIPFQLILNSGNARSFAMEALQFAKQGKMAEADEAMVKAKEAINEAHHFQTELIQSEARGEKTEISVLLIHAQDHLMNAITVKELAAEFIDLYKKLEAKGE	not failed
MMTVVKGLVTFRPMFALVLLSALVGCASAPKKAPPPSSFDATMSRAEAEVTNGGPEQALKTFEDAGRADPTRKEPWVRIAQLQFDRANYARAIVAAQEVLQRDPNDLVADGVLTVAGFRIANQSLQRLQGRGALVSGTARKEAEMLASTLRATMGDDILQPDEPKKRKPVRNARRAAPPAAKDAAPPKQTPNASADPFQNLGGN	failed
MMYFGIIPLILFIIFLISYLKDPRKIINGFLFNAFICFFLLFCVIVSLNSDSDVLRYIIFLPFLALLIMLPFGIVALMFGLFLNARILMKREGRRFTNCLTLLAALGMLFFMLLPIINPASLVSSHLEPIFAAISLISIYFFIHLSNFLSAYFLYQFNRPRRNQDFIIVLGSGLINDKVPPLLASRINKAIDFYWKQAAVNTPPTIIFSGGQGPDEGLPEAEAMQNYAVEKGIPIEHTVQENRSVNTYQNMLFSKEIMDSLKPEGKYKSIFTTNNFHLFRAGIYARQAGLNSQGIGSKTAFYYWPNAMIREYVAIVVMGRKRHMKICGTILGFAVFVSILSFIFS	failed
MNAADRVMQSYGRCCASTGFFDDFYRHFLASSPQIRAKFATTDMTAQKHLLRAGIMNLVMYARGMSDSKLRALGASHSRAALDIRPELYDLWLDALLMAVAEHDRDCDAETRDAWRDVMGRGIAVIKSYY	not failed
MNADTAIRIIEPPPSRGQLLYDGIRSLRKPKPDAAPQLPTERLVRPAVELKADEIARYARACGFRREHGVPLAFPHTLAFPLHLLLLTRPTFPYPASGMVHLANRIRQYQRLEEGQALRLEVFAERWLAHPKGQALSIATRAHSGGSLVWESDSLYLRRGVAGPIGEPWEGSLQWDEQALVRTQRWSLGGDLGRRFAQVSGDFNPIHTSWLGARLFGFRRPIAHGMWTLGRALAAQQPPHPLAAAQLDCEFKLPIFLPAAVTLWNRLPDGPRHEFEVRNNAGDKPHMRGLFIWGAR	failed
MNAGHLKEAAALYAEIVALNPGWEHGTALYSLACCYEDLGELTSAEECYRRALSYEPESPTFIGGLASFLHLHGSQS	failed
MNAIWIAVAAVSLLGLAFGAILGYASRRFAVEDDPVVEKIDEILPQSQCGQCGYPGCRPYAEAISCNGEKINRCAPGGEAVMLKIAELLNVEPQPLDGEAQEITPARMVAVIDENNCIGCTKCIQACPVDAIVGATRAMHTVMSDLCTGCNLCVDPCPTHCISLQPVAETPDSWKWDLNTIPVRIIPVEHHA	failed
MNAKLEVNGELVKESYVYLLSRYLVLRQENFDTKEDKIPYNTLKHNSVAPADANFVNPNFDVVYSEAWIAVDDDNAVILEVPEIKNRYYTVQLLDGWGEVVTNINERNYPDHPYGKFAFVKKGTNPSVPSDAVKIELPSEKVKVLLRVEQKDDPEGAVKLQKAFKFDAPDNIKIKEPLEIPHFTNADFLLEEIYSNLEELLATYPDKMPKAAEFQDKARQVAAYIELGDEQKAEVRNLIVKEAIPYFTDGAKGFGTQKGGWSVTYVAGAFENDILARAIINYGGIWANSIQEALYFIGQQGTDGELLSGDKVYKIHFPKDQLPNGLAEAFWSVTLYGVPDYHVIPNKLNKFSINDYTGPKTNEDGSLSLYIAAEKPADVDPGNWLPSKAGKGFSLNFRLYVPKKEVLEGKVFLPPLEVL	failed
MNALARLRGRKVVPQRSDGELDAMAAAGAVVAAALQAVRAAAVAGVSTLSLDQIAESVIRDAGAVPSFLGYHGYPASICASVNDRVVHGIPSAAEVLAPGDLVSIDCGAVLDGWHGDAAITFGVGALDPADEALCQGTRESLEAGIAAMVPGNRLTDVSHAIELGTRAAETRHGRAFGIVEGYGGHGIGRQMHMDPFLPNEGSPGRGPLLAPGSVLAIEPMLTLGTGKTVVLDDQWTVITTDGSRAAHWEHTVAVTDAGPRILTIG	failed
MNALPSSAEFSRAVGGDAVSREAVIRIEHLSKTFSDAAGPVLDDVSLTIRRGEIHGIIGRSGAGKSTLVRCINLLERPSAGRVIVSGREITSLRGRALRNARRDIGMIFQHFNVLSSHTVAGNVALPFKVAGLPRAEIARRIPPLLELVGLAHKADAYPSELSGGQKQRVGIARALALDPSVLLCDEATSALDPETTDQILALLRDINRKLGLTIVLITHEMHVVRDIATRVAVLDHGRVVEEGATFDVLAFPKSAVARSFLSGLVAHELPPPVAAQLLPAAVPGSDPVLRIVFTGTAAHDPIVADLVSVFGIQPNILHGRIDYVGDRPLGVLTLVAGGAGEKLPAVLSHLSSLGLVVEVIGHAVRSAVARRHSAARLEHHHHHH	failed
MNALRKVGAVAWAAVGSLLLSGCEFNGWYDVQLPGGAAADGHAYHVTVEFRDVLDLVPQSAVKVNNVTVGAVEEVQLDGWHARVRLRVADSVKLPANAVAELRQTSMLGEKYVALSTPPGTAPVGRLGDGDRIPLSRSGRNPDIEEVLSALSALLNGGGVAQLKTITVELNKALDGREDRVRSLLKELNTFIGGLDGRRKDIIHALKAVDRLAGRLGKEKKTIAQAVDTMPPALKVLADQRRDLTRMLTALSKLGTTGTKVVNASHDDTVANLKQLRPILQQLNKAGADLPNSLELLTTYPFPRNAVDAVRGDYVNLDITADLDLSALYRNLAGGSDKSGGGNGESTQPETPDIPDLPDLPTVPTPTALPSAPSLPSSPSMPSAPSGGGGPLCPPVCTSSYTTRGEPPEGIDLALAELMLKGVQP	failed
MNANENVSDDRFAEMVWEAVSGGATLKDVHGIPQDMMEGLYAHAYDFYHKGRLDEAETFFRFLCIYDFYNPDYIMGLAAVCQLKKQFQKAVDLYAVAFALSKNDYRPVFFTGQCQLFMRKAAKARQCFELVCEQSGDESLRDKAQVYLDSLQEAEAEQSRQQEKEQA	failed
MNAPLSHSRPMMQPSEDKSLATVFPFAGRVLDETPMLLGEGPTFDPASGTAWWFNILERELHELHLASGRKTVHALPFMGSALAKISDSKQLIASDDGLFLRDTATGVLTLHAELESDLPGNRSNDGRMHPSGALWIGTMGRKAETGAGSIYHVAKGKVTKLFADISIPNSICFSPDGTTGYFVDTKVNRLMRVPLDARTGLPTGKAEVFIDSTGIKGGMDGSVCDAEGHIWNARWGEGAVDRYDTDGNHIARYEVPGKQTTCPAFIGPDASRLLVTSAREHLDDDAITANPQHGLTFELGIEVKGRFEPLYRL	not failed
MNARLGVSLKILSALCATLMLACVKGLNGAIPTGEVIFFRSFVALFPLLLWLKVQGNILQRIKTKNIFGHLIRGFSGTGGMYFNYLALVYISLADATAISYAAPLFTVLMAAILLKENVHFSRWLAVIVGFCGILIMLSAKLTISNGLFSSGFALDGTALGATFALLAAACAATSNIQIRFLNGVESPGAIVFYFSLMTTLIGLFTLVFGWKMPHGWQWLLLIGCGLFGGIAQILVTLSLRYADASLLAPFDYTTLVWSMVIGYLFLDNLPEYATLMGASVVALAGIFTIWCNRRQRKGHIVRSS	failed
MNAVLVAVAIMLLLSLLRVQVIVAIIVGALTGGLIGGLGISETINTFTTGLGNSAPIALSYAMLGGFAISLSKTGLPDAMIQTALKWIGNEQDTKKQVYSKILILFIILTMACFSQNVIPVHIAFIPILIPALLKVLNELRVDRRLVTCIITFGLITPYMWIPAGFGKIYHDVLQTNAAQSGLTFDVTLIPKAMTIPAIGMIIGLCVAVFITYRKPRTYETEQIHTTENEIVPYTKRSITFGLLSIIATLTVQLTTESMIFGALAGIIVLSVSGSLPLKEADAILTSGMRMMSFIGFVMIAAAGFGAVLRKTGHVESLVQTSAHIIGNNKPLAAFLMLVIGLLVTMGIGSSFSTIPILTTIFVPLCIQLGFSPMATIAIIGTAGALGDAGSPASDSTLGPTSGLNADGQHHHIWDTCVPTFLHYNIPLLIFGFIAAITL	failed
MNDAAVWVPVPAMFYWGWLVPLIFGTIFGWRYHRDKVRLGNGIWFSLFFYSFLTMLAITILGSNIHWLIIISGALFVLLILLIGLIFTLQAFLLLWNAWIMWRHESHTLANMLTLYLGLGILVLPFLGNLLSSHVPQPVSYFLTLFPNLVIFYLGFLFYNYLTMLTIYQFNWPRLRQDYIIVLGDGWAETQSKTTFQNMQFSKQLIAQGPAKNPRTIFVTNKYGRLQI	failed
